We go through 1 substance from paper doi:10.1101/2021.10.28.465226.

pKd: −log10 of the molar value.

Usually pKd stands for the Kd on a negative log10 scale, so that one unit is a factor of ten. A higher pKd goes with a small Kd.

The target in the test is SARS-CoV-2 spike heptad repeat 1 (HR1) with C-terminal poly-his tag (SARS-CoV-2). In words: SPR. (SPR reads the build-up and loss of mass on a sensor chip optically.)

Take “SARS-CoV-2 spike heptad repeat 2 (HR2) peptide”: the negative logarithm of the Kd (pKd) was 8.65.
